Patent publication US20130029395

Target: octadecenoyl-ACP

B1: Synechococcus elongatus PCC7942 YP-400611 (Synpcc7942-1594) protein with C-terminal His-tag (protein)
chain: MFGLIGHLTSLEQARDVSRRMGYDEYADQGLEFWSSAPPQIVDEITVTSATGKVIHGRYIESCFLPEMLAARRFKTATRKVLNAMSHAQKHGIDISALGGFTSIIFENFDLASLRQVRDTTLEFERFTTGNTHTAYVICRQVEAAAKTLGIDITQATVAVVGATGDIGSAVCRWLDLKLGVGDLILTARNQERLDNLQAELGRGKILPLEAALPEADFIVWVASMPQGVVIDPATLKQPCVLIDGGYPKNLGSKVQGEGIYVLNGGVVEHCFDIDWQIMSAAEMARPERQMFACFAEAMLLEFEGWHTNFSWGRNQITIEKMEAIGEASVRHGFQPLALAI
For B1, the “Km for the reduction of octadecenoyl-ACP in the presence of 2 mM NADPH” value was 7.8 ± 2 µM.
